According to the DeepSol protein solubility set:

test: soluble on expression in E. coli; label from the status in PepcDB or PDB records

Sequence	soluble on expression in E. coli
SGEVEISARAYGKMCLHASRYPHAAVNGLLLAPATGSGECLCLTDCVPLFHSHLALSVMLEVALNQVDVWGAQAGLVVAGYYHANAVLDDQSPGPLALKIAGRIAEFFPRAVLIMLDNKKLVTRPRVPPVIVLENQGLQWVPKDKNLVMWRDWEESRQMVGALLEGRAHQHLVDFDCHLDDIRQDWTNQRLNTQITQWSGSTDGNA	soluble
ESNDSGIVVYNAQHENLVKSWVDGFTKDTGIKVTLRNGGDSELGNQLVQEGSASPADVFLTENSPAMVLVDNAKLFAPLDAVTQAQVAQEYRPEHGRWTGIAARSTVFVYNPEKISEAELPKSIMDLAKPEWKGRWAASPSGADFQAIVSAMLELKGEKATLEWLKAMKTNFTAYKGNSTVMKAVNAGQIDGGVIYHYYRFVDQAKTGENSGKTQLHYFKHQDPGAFVSISGGGVLASSKHPKEAQEFVKWITGKSGQDILRTNNAFEYAVGVDAASNPKLVPLKDLDAPKVEPSKLNSKKVVELMTEAGLL	soluble
MGSDKIHHHHHHMKTAALFVSKEFEEEAIALVEGANYKVTSIYKLPKSPNVKFYIQYDKLQQIKNDEEISTLIIFEQLKPRHFINIRRELKGKEVLDKILLLLEIFALHAGSKEAKMQIELARLKYELPIIKETYTKSKIGEQQGPLGAGTYGVESTIKFYKRRINKLMKELESIKIFKEKSIESNKRNNIPSIGIVGYTNSGKTSLFNSLTGLTQKVDTKLFTTMSPKRYAIPINNRKIMLVDTVGFIRGIPPQIVDAFFVTLSEAKYSDALILVIDSTFSENLLIETLQSSFEILREIGVSGKPILVTLNKIDKINGDLYKKLDLVEKLSKELYSPIFDVIPISALKRTNLELLRDKIYQLATQLS	not soluble
SNALSASEERFQLAVSGASAGLWDWNPKTGAMYLSPHFKKIMGYEDHELPDEITGHRESIHPDDRARVLAALKAHLEHRDTYDVEYRVRTRSGDFRWIQSRGQALWNSAGEPYRMVGWIMDVTDRKRDEDALRVSREELRRL	soluble
MDDAELRAVRTLISLTTRYFAVFKNAPVIMAVIDDNGKVVDANNAAAELIGEKPSGKHLRELLPAELCEKVLSTLEKALEEEKKANLRAKVSGKLLRVQLTPISADGRKLCLLTGFSVEDELSKAAREILRLAARAGDAETVIKGMAKKFGELELFSQVKVELDGLREVVREKDGEFVYEFPLRMHRKKGRVTLESRKELSSEEIDMLAETFEDVSILISTLELESKLSAEVRRTVELINELREQLKAVTLSLEILENDGLKSIVKERLGKMLQVAERLAGE	not soluble
MDIRLEDEQIKVGDTLLPGVYEGMEVTGDVRSDEEELQSGKRVVHYSYNPTTIRLNLKLLNDADGTPEEKLATIQKVFRPPSQTKPPTYKLVSSHAKARGIGQVMFIRFRSQDTNASDIITVSLEFQETESTTVSVQKVKANTGSGQQYTVKKGDTLWALAKKFNTTVEAIAKANNIANVNLIYVGQKLTIPAASGNASSVASSSAAVDDAEAPKVR	not soluble
MAHHHHHHMSTAKSFPMAQLSTRAQYSRMQREFVQLQRQENPRNINFTTSLKNRHKNRYLDILANEETIYPPVLKAVGAQPGRYPYINGNLIDLDLPHTFVACQAPVPQGVPDFLETLSEKKVDLVVMLTKLREGGVLKAERYWPEEEEDSLSFPESGHDAIKVTRDAEASYEVDAELDIVRRPLVIHVPGKPMHRVLQVQYVGWPDHGVPESAASFDELLSVIKNCVTTSPILVHCSAGIGRTGTLIGAYAALLHIERGILTDSTVYSIVAAMKQKRFGMVQRLEQYAVIYMTVLGRLGVDISGLVSTLNLKA	soluble
MSLRLKIGSPVFFKQVRPGLHGKPFTLYKFRTMTDERDSKGNLLPDEVRLTKTGRLIRKLSIDELPQLLNVLKGDLSLVGPRPLLMDYLPLYTEKQARRHEVKPGITGWAQINGRNAISWEKKFELDVWYVDNWSFFLDLKILCLTVRKVLVSEGIQQTNHVTAERFTGSGDVSSEGHHHHHH	not soluble
MGSDKIHHHHHHMIDVLVIGGGNAALCAALTAREAGASVTLLEAAPREWRGGNSQHTRNLRCMHDEPQDVLVDAYPEEEFWQDLLKVTGGITDEHLARLVIRHSSSCRDWMRRHGVNFQPPLSGTLHLSRTNAFFMGGGKALVNAYYRSARQLGVEIRYETPVDSLELDDNGNFIAAHTSSGRIEARSCVLACGGFESNREWLREAWGQNERGEWPGENFLIRGTRFNQGVLLKFLMQHGADIIGDPSQGHCVAIDARAPLYDGGICTRIDCVSLGIVVNRDAVRFYDEGEDFWPKRYAIWGRLTALQPGQIAYSIIDAKAIGRFMPPVFPGIQADTLPELARKIGLDEAQFVQTVETYNAACRIGTFDHTVLDDCHTENLQPAKTHWARPIDTGPFYAFAVRPGITFTYLGLKVDETAAVRFNGRPSENLFVAGEMMAGNVLGKGYTAGVGMSIGTAFGRIAGTQAAKAALQRHQTGALHEAA	not soluble
METGMVTVVNSNNFDVPRIYPPSSKSTSIHLTGFPTFYSKDHEYLLPVNLWFNYLVNIRKAVDITASVRALKRYWQFLETNNYSWDNFPANDYLKPTYRFRNDDLLKAARSGEIAFSTASMYILHVIKFYEWAAHERFITFTEENKPFNYQIVHIANSGMMSHNNPRFTVRSTDLRIRKPARNEQQKLNPLSQQELLFFADCLKECSDEFIIHQLLQIQSGLRVEEACTFPFSIVEMPNPHIHRYEVEIGIHNGVHTKFNKTRKVEIPNQLMRKMYDYSVSERRLKREKKTDGVNKTLLLNNLGNPLCSNNIQQHFRRLRHHIQNKHNIVFSHRTHDLRATYGTYRLDSLLDHLPVGDALALIMGWMGHKDDKTTWKYLRYLRKEKANQNAIVMLDQILEEAML	not soluble
VRPAIKVGLSTASVYPLRAEAAFEYADRLGYDGVELMVWGESVSQDIDAVRKLSRRYRVPVLSVHAPCLLISQRVWGANPILKLDRSVRAAEQLGAQTVVVHPPFRWQRRYAEGFSDQVAALEAASTVMVAVENMFPFRADRFFGAGQSRERMRKRGGGPGPAISAFAPSYDPLDGNHAHYTLDLSHTATAGTDSLDMARRMGPGLVHLHLCDGSGLPADEHLVPGRGTQPTAEVCQMLAGSGFVGHVVLEVSTSSARSANERESMLAESLQFARTHLLR	not soluble
MSLAAEKLRLVADPWPPFTDALLLNGGLATDIVNTALKRAGYTTLYEQVPWARALLGLSEGRHDVLINAWFSEDRKKIGQFSAEYLLNRIRFIKRKESPIDALTHEQLHHYLIAVVRGYAYSPAFDSDVLLKKVPVQNFSTAVRMLAAERVDLTLEDEYVARYNLALEANEVRARVEFLPGSLSENSLHILVSLKNPHHAKIVADFDREIAAMKADGTYEELLRLHGLQGPPEEGHHHHHH	soluble
MSLKQFKSIINTSQDFEKRIEKIKKEVINDPDVKQFLEAHRAELTNAMIDEDLNVLQEYKDQQKHYDGHKFADCPNFVKGHVPELYVDNNRIKIRYLQCPCKIKYDEERFEAELITSHHMQRDTLNAKLKDIYMNHRDRLDVAMAADDICTAITNGEQVKGLYLYGPFGTGKSFILGAIANQLKSKKVRSTIIYLPEFIRTLKGGFKDGSFEKKLHRVREANILMLDDIGAEEVTPWVRDEVIGPLLHYRMVHELPTFFSSNFDYSELEHHLAMTRDGEEKTKAARIIERVKSLSTPYFLSGENFRNNEGHHHHHH	soluble
MDNTNTGLKLFVLDTNILMHDPTAIYHFDEHDIYLPMVVLEELDSHKTGTSELARNVRQTNRMLVELMSNATHDQIVSGLPIPSYINSSNKKCSGRLFFQTDEFDQVVPSTLPGHKVDNTILATALGLQKKYYGKRQVIIISKDINLRIKAGILGIHAEDYYNDQVLDDVNLLHRGLHILDNNFWDSHAKDMGSWQESGKTFYKVSGPLVSQWNPNDCLSTEDDQFQALVKKIDGPNAVVQLIRDYTQPKHSVWGITARNREQNFSLNLLLDPDIDFVSLQGSAGTGKTLLTIAAGLTQVMDQNRYSEILMTRVTIPVGEDIGFLPGTEEEKMTPWMGALMDNLEVLHSSQVGGSFGRGATQDLLQNKIKIRSLNFMRGRTFLNRYIIIDEAQNLTSKQIKTLVTRAGPGSKIICLGDIKQIDTPYLTETTSGLTFAVDRFKSWEHSAHMTLTRGERSRLAFYAAEHL	not soluble
DTVKIDANVNYQIIQGFGGMSGVGWINDLTTEQINTAYGSGVGQIGLSIMRVRIDPDSSKWNIQLPSARQAVSLGAKIMATPWSPPAYMKSNNSLINGGRLLPANYSAYTSHLLDFSKYMQTNGAPLYAISIQNEPDWKPDYESCEWSGDEFKSYLKSQGSKFGSLKVIVAESLGFNPALTDPVLKDSDASKYVSIIGGHLYGTTPKPYPLAQNAGKQLWMTEHYVDSKQSANNWTSAIEVGTELNASMVSNYSAYVWWYIRRSYGLLTEDGKVSKRGYVMSQYARFVRPGALRIQATENPQSNVHLTAYKNTDGKMVIVAVNTNDSDQMLSLNISNANVTKFEKYSTSASLNVEYGGSSQVDSSGKATVWLNPLSVTTFVSK	soluble
MGSDKIHHHHHHMKAVIFDDFGSPDVLRIADVQRPVATTATVLVKVMAVAVNHVDTFVRSGTFKTALAAPHVAGRDLVGEVVASSQPDFQIGDQVWTNSMGYEGRMGATAEYVAVPTDRLYHVPDGVAPMPLVAAVHSAATAAIVLNDVMEICSGQTLLIEGAAGNVGRKLIQLAHQMGVTVVITASPRDFARCQQLGSTACYDYHAGFADQLTTDQWTFDHVIDTSGRVPLAINLALLRLGGQVTLITAPQDNQFEFPVRQFYMSQQRITGFVISHATVDQLAQAASRLNRAFSAGLLLDDQVSQRYFKDAAQCHAQLEAGTDHHQRFVLLPS	not soluble
NTGIVSSFFTYTGPAHGTQWDEIDIEFLGKDTTKVQFNYYTNGVGGHEKVISLGFDASKGFHTYAFDWQPGYIKWYVDGVLKHTATANIPSTPGKIMMNLWNGTGVDDWLGSYNGANPLYAEYDWVKYTSNQTGGSFFEPFNSYNSGTWEKADGYSNGGVFNCTWRANNVNFTNDGKLKLGLTSSAYNKFDCAEYRSTNIYGYGLYEVSMKPAK	soluble
AHHHHHHGSGVPIGEIIPRKEIELENLYGKKIAIDALNAIYQFLSTIRQKDGTPLMDSKGRITSHLSGLFYRTINLMEAGIKPVYVFDGEPPEFKKKELEKRREAREEAEEKWREALEKGEIEEARKYAQRATRVNEMLIEDAKKLLELMGIPIVQAPSEGEAQAAYMAAKGSVYASASQDYDSLLFGAPRLVRNLTITGKRKLPGKNVYVEIKPELIILEEVLKELKLTREKLIELAILVGTDYNPGGIKGIGLKKALEIVRHSKDPLAKFQKQSDVDLYAIKEFFLNPPVTDNYNLVWRDPDEEGILKFLCDEHDFSEERVKNGLERLKKAIKSGKQSTLESWFKR	soluble
MSLQVEGLSINLATIREQCGFAEAVDVCLKHGITAIAPWRDQVAAIGLEEASRIVRSNGLKLTGLCRGGFFPAPDAAGREKAIDDNKRAVDEAAELGADCLVLVVGGLPGGSKNIDAARSMVLEGIAAVLPHARAAGVPLAIEPLHPMYAADRACVNTLGQALDICEALGPGVGAAIDVYHVWWDPDLNEQIARAGRMKAILAHHICDWLVPTKDMLTDRGMMGDGVIDLKAIRREVEAAGFHGAQEVEIFSADNWWKRPAEEVIATCVERYRSCCRDDEGHHHHHH	soluble
MGVSRVLHVEGGTPLKGELRVYPAKNAALPILAASLLTPEPITLVEVPRLRDVEVMLELLAHLGTQYAWEGRTLHLQTPEIKSTHAPYELVGQMRASFIVWGALLARAGEGHVSMPGGCAFGFRPVDQHIKALEALGAEVWEEDGTFHARRTRPLSGRVVFDLPTVGGTEQAMLAVALGGEATLVQAAVEPEVVDLGHFLALLGAEVEGLGSPIVRIKGAPRLKGGTYRIIPDRIEAGTYLLAAAATRGSLTLEGVRPDHLDALLDKLWRSGHRLEVGEDWIRFRATPDPAPFHVEAREYPGFPTDLQPIATAYLATVPGQSTVVDRIYPDRFTHVGELARMGAELYLRDRILTVQGRRLHGAQVKALDIRAGGALVVAALSAEGASEIEGVYFLERGYEHLTERLQALGARVHLRESPVALAAD	soluble
